# Measurements reported in patent publication US20200087400A1 (EUREKA THERAPEUTICS, published 2020).
# Numbering of substitutions follows the chain as printed.
# B1: PSA146/HLA-A*02:01-specific scFv phage clone #18 (scFv, V domains shown)
# VH: QVQLVQSGAEVKKPGESLKISCKGSGYSFTSYWIGWVRQMPGKGLEWMGIIYPGDSDTRYSPSFQGQVTISADKSISTAYLQWSSLKASDTAMYYCARWGSRGFLDAFDIWGQGTMVTVSS
# VL: QSVVTQPPSVSAAPGQRVTISCSGSSSNIGNNYVSWYQQLPGAAPRLLIYDNDKRPSGIPDRFSGSKSGTSATLGITGLQTGDEADYYCGTWDSSLSSGVFGGGTKLTVLG
# B2: PSA146/HLA-A*02:01-specific scFv phage clone #15 (scFv, V domains shown)
# VH: QVQLVQSGAEVKKPGSSVKVSCKASGGTFSSYAISWVRQAPGQGLEWMGRIIPILGIANYAQKFQGRVTITADKSTSTAYMELSSLRSEDTAVYYCARVSQPVYGSSTYDIWGQGTLVTVSS
# VL: QAVLTQPPSASGTPGQRVTISCSGRSSNLGSNSVNWYQQVPGTAPKLLIFDNHQRPSGVPDRFSGSKSGTSASLAISGLRSEDETDYYCAAWDDSLNSVVFGGGTKLTVLG
# B3: PSA146/HLA-A*02:01-specific scFv phage clone #10 (scFv, V domains shown)
# VH: QVQLVQSGAEVKKPGSSVKVSCKASGGTFSSYAISWVRQAPGQGLEWMGWINPNSGGTNYAQKFQGRVTMTRDTSISTAYMELSRLRSDDTAVYYCARWSYYYFQQFWSLDGWGQGTLVTVSS
# VL: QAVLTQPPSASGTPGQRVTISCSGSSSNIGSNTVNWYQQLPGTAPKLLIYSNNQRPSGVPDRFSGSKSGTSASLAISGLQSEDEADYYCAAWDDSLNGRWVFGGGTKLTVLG
# B4: PSA146/HLA-A*02:01-specific scFv phage clone #12 (scFv, V domains shown)
# VH: QMQLVQSGSEVKKPGASVKVSCKASGYTFTSYGISWVRQAPGQGLEWMGWISAYNGNTDYVQKLQGRVTMTTDTSTNTAYMELGSLGSDDTAVYYCARTNYNKYDIWGQGTLVTVSS
# VL: QSVLTQPPSVSGAPGQRVTISCTGSSSNIGAGYDVHWYQQLPGTAPKLLIYGNSNRPSGVPDRFSGSKSGTSASLAITGLQAEDEADYYCQSYDSSLSEVFGTGTKVTVLG
# B5: PSA146/HLA-A*02:01-specific scFv phage clone #13 (scFv, V domains shown)
# VH: QVQLVQSGAEVKKPGASVKVSCKASGYTFTSYYMHWVRQAPGQGLEWMGGFDPEDGETIYAQKFQGRVTMTEDTSTDTAYMGLSSLRSEDTAVYYCARYSYDYWGQGTLVTVSS
# VL: QAVVTQEPSLTVSPGGTVTLTCASSTGAVTSGYYPNWFQQKPGQAPRALIYSTSNKHSWTPARFSGSLLGGKAALTLSGVQPEDEAEYYCLLYYGGAYVFGTGTKVTVLG
# B6: PSA146/HLA-A*02:01-specific scFv phage clone #14 (scFv, V domains shown)
# VH: B5 VH with Q1E, S31G, Y33F, G82E, Y103L
# VL: QTVVTQEPSLTVSPGGTVTLTCASSTGAVTSGYYPNWFQQKPGQAPRALIYSTSNKHSWTPARFSGSLLGGKAALTLSGVQPEDEAEYYCLLYYGGAQWVFGGGTKLTVLG
# Molecular target: T1, Bio-P19 member A2E-8 (chain 2 (heavy): C-terminal BirA substrate peptide, biotinylated there by BirA; tag letters not given, left out)
# T1 construct: also called biotinylated control peptide A2E-8/HLA-A*02:01 monomer; not shown: BirA substrate peptide (BSP) tag at the C-terminus of the heavy chain
# Test: phage ELISA, streptavidin plate, anti-M13-HRP
# Method in brief: (§1)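 ELISA: clones incubated on streptavidin-captured biotinylated peptide/HLA-A*02:01 complex, detected by HRP-conjugated anti-M13 with absorbance at 450 nm. FACS: T2 cells, unloaded or peptide-loaded with β2M, stained sequentially on ice (30–60 min per step) with scFv phage, anti-M13 and R-PE anti-mouse IgG.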
# T1 sequence (b2m, as listed by the source): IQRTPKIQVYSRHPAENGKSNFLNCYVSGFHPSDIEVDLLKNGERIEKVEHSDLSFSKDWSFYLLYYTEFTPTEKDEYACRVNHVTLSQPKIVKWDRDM
row,Binder,binding result
1,B1,no binding
2,B2,no binding
3,B3,no binding
4,B4,no binding
5,B5,no binding
6,B6,no binding

# Molecular target: T2, Bio-P19 member A2E-4 (chain 2 carries a C-terminal BirA substrate peptide (BSP), enzymatically biotinylated; the BSP letters are not given in the patent and are left out)
# T2 construct: also called biotinylated control peptide A2E-4/HLA-A*02:01 monomer
# Test: phage ELISA, streptavidin plate, anti-M13-HRP
# Method in brief: as §1
# T2 sequence (beta, as listed by the source): as the sequence (b2m, as listed by the source) above
row,Binder,binding result
1,B1,no binding
2,B2,no binding
3,B3,no binding
4,B4,no binding
5,B5,no binding
6,B6,no binding

# Molecular target: T3, Bio-P19 member A2E-7 (chain 2 (heavy): C-terminal BirA substrate peptide, biotinylated there by BirA; tag letters not given, left out)
# T3 construct: also called biotinylated control peptide A2E-7/HLA-A*02:01 monomer; not shown: BirA substrate peptide (BSP) tag at the C-terminus of the heavy chain
# Test: phage ELISA, streptavidin plate, anti-M13-HRP
# Method in brief: as §1
# T3 sequence (b2m, as listed by the source): as above
row,Binder,binding result
1,B1,no binding
2,B2,no binding
3,B3,no binding
4,B4,no binding
5,B5,no binding
6,B6,no binding

# Molecular target: T4, Bio-P19 member A2E-15 (chain 2: C-terminal BirA substrate peptide (BSP), enzymatically biotinylated; its letters are not printed in the patent and it is left out)
# T4 construct: also called biotinylated control peptide A2E-15/HLA-A*02:01 monomer
# Test: phage ELISA, streptavidin plate, anti-M13-HRP
# Method in brief: as §1
# T4 sequence (b2m, as listed by the source): as above
row,Binder,binding result
1,B1,no binding
2,B2,no binding
3,B3,no binding
4,B4,no binding
5,B5,no binding
6,B6,no binding

# Molecular target: T5, Bio-P19 member A2E-16 (chain 2: C-terminal BirA substrate peptide (BSP), enzymatically biotinylated; its letters are not printed in the patent and it is left out)
# T5 construct: also called biotinylated control peptide A2E-16/HLA-A*02:01 monomer
# Test: phage ELISA, streptavidin plate, anti-M13-HRP
# Method in brief: as §1
# T5 sequence (b2m, as listed by the source): as above
row,Binder,binding result
1,B1,no binding
2,B2,no binding
3,B3,no binding
4,B4,no binding
5,B5,no binding
6,B6,no binding

# Molecular target: T6, Bio-P19 member A2E-2 (chain 2 carries a C-terminal BirA substrate peptide (BSP), enzymatically biotinylated; the BSP letters are not given in the patent and are left out)
# T6 construct: also called biotinylated control peptide A2E-2/HLA-A*02:01 monomer
# Test: phage ELISA, streptavidin plate, anti-M13-HRP
# Method in brief: as §1
# T6 sequence (beta, as listed by the source): as the sequence (b2m, as listed by the source) above
row,Binder,binding result
1,B1,no binding
2,B2,no binding
3,B3,no binding
4,B4,no binding
5,B5,no binding
6,B6,no binding

# Molecular target: T7, Bio-P19 member A2E-1 (chain 2: C-terminal BirA substrate peptide (BSP), enzymatically biotinylated; its letters are not printed in the patent and it is left out)
# T7 construct: also called biotinylated control peptide A2E-1/HLA-A*02:01 monomer
# Test: phage ELISA, streptavidin plate, anti-M13-HRP
# Method in brief: as §1
# T7 sequence (b2m, as listed by the source): as above
row,Binder,binding result
1,B1,no binding
2,B2,no binding
3,B3,no binding
4,B4,no binding
5,B5,no binding
6,B6,no binding

# Molecular target: T8, Bio-P19 member A2E-23 (chain 2 carries a C-terminal BirA substrate peptide (BSP), enzymatically biotinylated; the BSP letters are not given in the patent and are left out)
# T8 construct: also called biotinylated control peptide A2E-23/HLA-A*02:01 monomer
# Test: phage ELISA, streptavidin plate, anti-M13-HRP
# Method in brief: as §1
# T8 sequence (beta, as listed by the source): as the sequence (b2m, as listed by the source) above
row,Binder,binding result
1,B1,no binding
2,B2,no binding
3,B3,no binding
4,B4,no binding
5,B5,no binding
6,B6,no binding

# Molecular target: T9, Bio-P19 member A2E-19 (chain 2 carries a C-terminal BirA substrate peptide (BSP), enzymatically biotinylated; the BSP letters are not given in the patent and are left out)
# T9 construct: also called biotinylated control peptide A2E-19/HLA-A*02:01 monomer
# Test: phage ELISA, streptavidin plate, anti-M13-HRP
# Method in brief: as §1
# T9 sequence (beta, as listed by the source): as the sequence (b2m, as listed by the source) above
row,Binder,binding result
1,B1,no binding
2,B2,no binding
3,B3,no binding
4,B4,no binding
5,B5,no binding
6,B6,no binding

# Molecular target: T10, Bio-P19 member A2E-10 (chain 2: C-terminal BirA substrate peptide (BSP), enzymatically biotinylated; its letters are not printed in the patent and it is left out)
# T10 construct: also called biotinylated control peptide A2E-10/HLA-A*02:01 monomer
# Test: phage ELISA, streptavidin plate, anti-M13-HRP
# Method in brief: as §1
# T10 sequence (b2m, as listed by the source): as above
row,Binder,binding result
1,B1,no binding
2,B2,no binding
3,B3,no binding
4,B4,no binding
5,B5,no binding
6,B6,no binding

# Molecular target: T11, Bio-P19 member A2E-21 (chain 2 carries a C-terminal BirA substrate peptide (BSP), enzymatically biotinylated; the BSP letters are not given in the patent and are left out)
# T11 construct: also called biotinylated control peptide A2E-21/HLA-A*02:01 monomer
# Test: phage ELISA, streptavidin plate, anti-M13-HRP
# Method in brief: as §1
# T11 sequence (beta, as listed by the source): as the sequence (b2m, as listed by the source) above
row,Binder,binding result
1,B1,no binding
2,B2,no binding
3,B3,no binding
4,B4,no binding
5,B5,no binding
6,B6,no binding

# Molecular target: T12, Bio-P19 member A2E-17 (chain 2: C-terminal BirA substrate peptide (BSP), enzymatically biotinylated; its letters are not printed in the patent and it is left out)
# T12 construct: also called biotinylated control peptide A2E-17/HLA-A*02:01 monomer
# Test: phage ELISA, streptavidin plate, anti-M13-HRP
# Method in brief: as §1
# T12 sequence (b2m, as listed by the source): as above
row,Binder,binding result
1,B1,no binding
2,B2,no binding
3,B3,no binding
4,B4,no binding
5,B5,no binding
6,B6,no binding

# Molecular target: T13, Bio-P19 member A2E-9 (chain 2 (heavy): C-terminal BirA substrate peptide, biotinylated there by BirA; tag letters not given, left out)
# T13 construct: also called biotinylated control peptide A2E-9/HLA-A*02:01 monomer; not shown: BirA substrate peptide (BSP) tag at the C-terminus of the heavy chain
# Test: phage ELISA, streptavidin plate, anti-M13-HRP
# Method in brief: as §1
# T13 sequence (b2m, as listed by the source): as above
row,Binder,binding result
1,B1,no binding
2,B2,no binding
3,B3,no binding
4,B4,no binding
5,B5,no binding
6,B6,no binding

# Molecular target: T14, Bio-P19 member A2E-11 (chain 2: C-terminal BirA substrate peptide (BSP), enzymatically biotinylated; its letters are not printed in the patent and it is left out)
# T14 construct: also called biotinylated control peptide A2E-11/HLA-A*02:01 monomer
# Test: phage ELISA, streptavidin plate, anti-M13-HRP
# Method in brief: as §1
# T14 sequence (b2m, as listed by the source): as above
row,Binder,binding result
1,B1,no binding
2,B2,no binding
3,B3,no binding
4,B4,no binding
5,B5,no binding
6,B6,no binding

# Molecular target: T15, Bio-P19 member A2E-3 (chain 2 carries a C-terminal BirA substrate peptide (BSP), enzymatically biotinylated; the BSP letters are not given in the patent and are left out)
# T15 construct: also called biotinylated control peptide A2E-3/HLA-A*02:01 monomer
# Test: phage ELISA, streptavidin plate, anti-M13-HRP
# Method in brief: as §1
# T15 sequence (beta, as listed by the source): as the sequence (b2m, as listed by the source) above
row,Binder,binding result
1,B1,no binding
2,B2,no binding
3,B3,no binding
4,B4,no binding
5,B5,no binding
6,B6,no binding

# Molecular target: T16, Bio-P19 member A2E-5 (chain 2 carries a C-terminal BirA substrate peptide (BSP), enzymatically biotinylated; the BSP letters are not given in the patent and are left out)
# T16 construct: also called biotinylated control peptide A2E-5/HLA-A*02:01 monomer
# Test: phage ELISA, streptavidin plate, anti-M13-HRP
# Method in brief: as §1
# T16 sequence (beta, as listed by the source): as the sequence (b2m, as listed by the source) above
row,Binder,binding result
1,B1,no binding
2,B2,no binding
3,B3,no binding
4,B4,no binding
5,B5,no binding
6,B6,no binding
